T1: rhesus monkey CD203c His-tagged recombinant protein (rhesus monkey, UniProt F6TH66 31-874)
T1 construct: also called rhesus CD203c; not shown: His tag
T1 sequence: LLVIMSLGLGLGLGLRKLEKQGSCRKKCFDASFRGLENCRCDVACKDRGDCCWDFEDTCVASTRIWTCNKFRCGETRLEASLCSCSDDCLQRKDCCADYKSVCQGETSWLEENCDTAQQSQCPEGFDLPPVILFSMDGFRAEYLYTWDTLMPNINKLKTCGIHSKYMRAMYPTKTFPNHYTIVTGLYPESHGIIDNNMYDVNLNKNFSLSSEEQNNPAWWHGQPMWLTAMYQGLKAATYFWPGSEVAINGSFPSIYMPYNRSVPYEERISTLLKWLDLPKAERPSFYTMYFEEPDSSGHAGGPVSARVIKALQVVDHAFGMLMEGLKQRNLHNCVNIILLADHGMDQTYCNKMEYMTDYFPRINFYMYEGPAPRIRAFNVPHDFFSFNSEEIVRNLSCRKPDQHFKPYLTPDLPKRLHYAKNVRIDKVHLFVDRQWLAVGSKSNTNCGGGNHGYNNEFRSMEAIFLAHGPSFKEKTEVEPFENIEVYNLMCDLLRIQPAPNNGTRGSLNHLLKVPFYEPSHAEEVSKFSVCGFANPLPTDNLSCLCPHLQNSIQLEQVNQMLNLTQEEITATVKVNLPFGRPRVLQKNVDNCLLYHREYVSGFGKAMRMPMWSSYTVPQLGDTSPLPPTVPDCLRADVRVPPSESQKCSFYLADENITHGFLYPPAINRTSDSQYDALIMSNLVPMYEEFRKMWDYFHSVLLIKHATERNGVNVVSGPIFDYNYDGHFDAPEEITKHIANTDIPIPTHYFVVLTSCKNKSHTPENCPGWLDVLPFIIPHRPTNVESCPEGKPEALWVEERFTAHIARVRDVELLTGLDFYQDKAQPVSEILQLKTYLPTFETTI

T2: human CD203c expressed on the surface of KU812 cells (human, UniProt O14638 1-875)
T2 construct: whole, on cells; also called cell-surface CD203c; cell surface CD203c on KU812 cells
T2 sequence (looked up): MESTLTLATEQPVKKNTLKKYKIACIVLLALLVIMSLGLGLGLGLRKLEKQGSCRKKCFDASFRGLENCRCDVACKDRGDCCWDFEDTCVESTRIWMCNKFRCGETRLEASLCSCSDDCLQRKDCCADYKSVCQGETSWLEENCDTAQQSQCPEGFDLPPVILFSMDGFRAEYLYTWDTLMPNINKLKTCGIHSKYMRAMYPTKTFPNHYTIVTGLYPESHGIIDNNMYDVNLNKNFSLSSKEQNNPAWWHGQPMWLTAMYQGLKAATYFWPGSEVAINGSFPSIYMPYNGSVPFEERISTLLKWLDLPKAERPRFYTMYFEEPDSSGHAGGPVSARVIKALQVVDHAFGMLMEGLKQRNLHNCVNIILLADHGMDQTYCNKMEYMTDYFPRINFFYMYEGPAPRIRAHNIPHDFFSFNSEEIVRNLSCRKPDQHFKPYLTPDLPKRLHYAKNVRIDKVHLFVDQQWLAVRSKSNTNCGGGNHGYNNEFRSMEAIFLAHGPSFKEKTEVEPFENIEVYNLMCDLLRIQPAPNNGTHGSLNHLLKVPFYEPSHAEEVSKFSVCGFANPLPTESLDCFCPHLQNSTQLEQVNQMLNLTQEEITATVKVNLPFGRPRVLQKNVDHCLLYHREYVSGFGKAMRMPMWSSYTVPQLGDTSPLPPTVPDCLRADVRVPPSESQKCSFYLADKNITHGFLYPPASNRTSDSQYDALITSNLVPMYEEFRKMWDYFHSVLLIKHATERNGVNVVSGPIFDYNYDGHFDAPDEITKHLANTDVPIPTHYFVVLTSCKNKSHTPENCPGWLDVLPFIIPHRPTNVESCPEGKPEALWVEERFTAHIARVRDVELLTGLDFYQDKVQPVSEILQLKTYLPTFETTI

T3: human CD203c His-tagged recombinant protein (human, UniProt O14638 49-875, limits assumed)
T3 construct: also called ENPP3; not shown: His tag
T3 sequence (looked up): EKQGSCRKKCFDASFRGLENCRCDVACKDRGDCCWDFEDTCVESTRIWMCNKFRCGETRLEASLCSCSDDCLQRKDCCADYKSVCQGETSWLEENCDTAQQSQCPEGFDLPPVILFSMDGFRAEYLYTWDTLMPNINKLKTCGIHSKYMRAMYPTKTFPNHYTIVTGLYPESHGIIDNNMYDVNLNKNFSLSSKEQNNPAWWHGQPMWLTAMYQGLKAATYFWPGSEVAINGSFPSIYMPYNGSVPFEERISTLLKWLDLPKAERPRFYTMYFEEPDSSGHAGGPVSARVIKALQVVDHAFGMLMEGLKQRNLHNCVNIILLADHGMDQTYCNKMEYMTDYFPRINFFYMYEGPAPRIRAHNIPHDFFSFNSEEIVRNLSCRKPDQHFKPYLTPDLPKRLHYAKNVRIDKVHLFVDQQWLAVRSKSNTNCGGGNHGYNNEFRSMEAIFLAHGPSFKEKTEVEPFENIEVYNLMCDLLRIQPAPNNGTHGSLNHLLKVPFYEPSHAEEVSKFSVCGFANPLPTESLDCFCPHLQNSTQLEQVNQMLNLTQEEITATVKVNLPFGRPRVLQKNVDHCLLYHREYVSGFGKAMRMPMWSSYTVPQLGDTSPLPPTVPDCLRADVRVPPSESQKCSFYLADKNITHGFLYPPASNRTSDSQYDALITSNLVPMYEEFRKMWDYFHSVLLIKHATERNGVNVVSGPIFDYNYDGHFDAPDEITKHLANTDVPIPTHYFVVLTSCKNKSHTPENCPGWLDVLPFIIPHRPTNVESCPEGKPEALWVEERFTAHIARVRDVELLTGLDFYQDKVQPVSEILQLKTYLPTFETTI

B1: 10 (antibody, V domains shown)
VH: EVQLVQSGAEVKKPGESLKISCKGSGYRFTSYWIGWVRQMPGKGLEWMGIIYPGDSDTRYSPSFQGQVTISADKSISTAYLQWSSLKASDTAMYYCARKDYYYGAMDVWGQGTTVTVSS
VL: DIQMTQSPSSLSASVGDRVTITCRASQGIRTNLAWFQQKPGKAPKSLIYAASSLQSGVPSRFSGSGSGTDFTLTISSLQPEDFATYYCQQYNSYPRTFGGGTKVEIK
notes: also called variant 10; 10 VH domain
B2: 15 (antibody, V domains shown)
VH: B1 VH with A105T
VL: B1 VL
notes: also called variant 15; 15 VH domain
B3: 18 (antibody, V domains shown)
VH: B1 VH with G104D, V108Y
VL: B1 VL
notes: also called variant 18; 18 VH domain
B4: 11 (antibody, V domains shown)
VH: B1 VH with M106F
VL: B1 VL
notes: also called variant 11; 11 VH domain
B5: 17 (antibody, V domains shown)
VH: B1 VH with G104N, D107P
VL: B1 VL
notes: also called variant 17; 17 VH domain
B6: 14 (antibody, V domains shown)
VH: B1 VH with M106L
VL: B1 VL
notes: also called variant 14; 14 VH domain
B7: 26 (antibody, V domains shown)
VH: B1 VH with T30A, Y32H, I50E, Y60I, G104Y
VL: B1 VL
notes: also called variant 26; 26 VH domain
B8: 13 (antibody, V domains shown)
VH: B1 VH with A105S
VL: B1 VL
notes: also called variant 13; 13 VH domain
B9: 12 (antibody, V domains shown)
VH: B1 VH with A105I
VL: B1 VL
notes: also called variant 12; 12 VH domain
B10: C4 (antibody, V domains shown)
VH: B1 VH with T30G, I50D, D55N, G104Y
VL: B1 VL
notes: also called variant C4; C4 VH domain
B11: A5 (antibody, V domains shown)
VH: B1 VH with T30S, W33R, I50E, D57K, G104Y
VL: B1 VL
notes: also called variant A5; A5 VH domain
B12: 23 (antibody, V domains shown)
VH: B1 VH with T30G, I50E, D57K, G104Y
VL: B1 VL
notes: also called variant 23; 23 VH domain

In general, EC50 (read off the curve) refers to the concentration needed to bring the measured effect to its halfway point.

Positions count from the first letter of the chain named.

The target of one test is T1, rhesus monkey CD203c His-tagged …. Description: direct binding ELISA on rhesus CD203c, absorbance (blank corrected). On the technique in general: An ELISA detects its analyte on a solid surface through an enzyme-linked reagent.
In the case of B1, the binding result is on record as “binds”.
For B2, the binding result is “binds”.
On the same count and under the same terms, the value for B3 was “binds”; that for B4 was “binds”; that for B5 was “binds”.
The same measure, in the same setting: the value for B6 was “binds”; that for B7 was “binds”.
Still for that read-out and setting: the value for B8 was “binds”; that for B9 was “binds”.

For another test, the target named is T2, human CD203c expressed on the surface …. Description: flow cytometry on KU812 cells, MFI (530/30 - 488nm) of live cells. On the technique in general: In flow cytometry, cells or beads pass a laser one at a time.
Turning to B1, the binding result was “binds”.
Same read-out and setting: with B2 the entry was “binds”; with B10, “binds”.
Same read-out and setting: the value for B4 was “binds”.
For the molecule B5, the binding result was “binds”.
The same measure, in the same setting: the value for B11 was “binds”.

The next test deals with T3, human CD203c His-tagged recombinant …. Description: direct binding ELISA on human CD203c, absorbance (blank corrected).
On to B1, for which the binding result is on record as “binds”.
B2: the binding result is “binds”.
On the same count and under the same terms, with B10 the entry was “binds”; with B3, “binds”; with B4, “binds”.
On the same count and under the same terms, with B5 the entry was “binds”; with B11, “binds”; with B6, “binds”.
Still for that read-out and setting: the value for B7 was “binds”.
As to B8, the binding result is “binds”.
On to B12, for which the binding result was “binds”.
B9: the half-maximal effective concentration (EC50 (read off the curve)) is around 0.04 µg/mL.
